Measured values published in patent US20220204580A1 (AstraZeneca / MedImmune, published 2022).
Numbered stars: 1 amine (or outer) side, 2 acyl side, 3 side chain; on linkers, the order of the positions; unused ones are H or OH. Bridge positions count the residues as written; N and C are the ends. Square brackets hold non-standard residues; d marks the D form. Side chains are listed from the residue outwards. Ends that are not written are not given here. * marks the point of attachment. C18 diacid = O=C(O)CCCCCCCCCCCCCCCCC(=O)*; γGlu = O=C(O)[C@H](CCC(=O)[*:2])N[*:1]; αMeF = C[C@](N)(Cc1ccccc1)C(=O)O; Dab = NCC[C@H](N)C(=O)O; Aib = CC(C)(N)C(=O)O

T1: human amylin receptor (calcitonin receptor co-expressed with receptor activity modifying protein, RAMP3) (human, UniProt P30988 25-474; O60896 24-148)
T1 sequence (looked up) 1: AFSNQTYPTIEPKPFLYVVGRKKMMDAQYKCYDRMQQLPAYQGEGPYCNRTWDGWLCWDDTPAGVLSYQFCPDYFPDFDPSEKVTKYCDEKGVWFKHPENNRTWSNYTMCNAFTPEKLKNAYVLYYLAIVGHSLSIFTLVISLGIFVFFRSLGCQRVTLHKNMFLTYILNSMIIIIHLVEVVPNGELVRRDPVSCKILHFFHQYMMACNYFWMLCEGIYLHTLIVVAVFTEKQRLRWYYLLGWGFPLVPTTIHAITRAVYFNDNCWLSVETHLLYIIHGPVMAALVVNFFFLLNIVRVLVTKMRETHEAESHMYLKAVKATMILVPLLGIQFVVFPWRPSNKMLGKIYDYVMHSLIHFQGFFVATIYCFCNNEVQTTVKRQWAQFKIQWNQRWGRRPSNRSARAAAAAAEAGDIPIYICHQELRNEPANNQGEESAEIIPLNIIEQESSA
T1 sequence (looked up) 2: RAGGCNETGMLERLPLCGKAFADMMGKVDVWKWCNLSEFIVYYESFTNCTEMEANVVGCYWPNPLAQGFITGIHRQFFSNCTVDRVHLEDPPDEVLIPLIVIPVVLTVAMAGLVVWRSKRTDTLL

T2: human calcitonin receptor (human, UniProt P30988 25-474)
T2 sequence (looked up): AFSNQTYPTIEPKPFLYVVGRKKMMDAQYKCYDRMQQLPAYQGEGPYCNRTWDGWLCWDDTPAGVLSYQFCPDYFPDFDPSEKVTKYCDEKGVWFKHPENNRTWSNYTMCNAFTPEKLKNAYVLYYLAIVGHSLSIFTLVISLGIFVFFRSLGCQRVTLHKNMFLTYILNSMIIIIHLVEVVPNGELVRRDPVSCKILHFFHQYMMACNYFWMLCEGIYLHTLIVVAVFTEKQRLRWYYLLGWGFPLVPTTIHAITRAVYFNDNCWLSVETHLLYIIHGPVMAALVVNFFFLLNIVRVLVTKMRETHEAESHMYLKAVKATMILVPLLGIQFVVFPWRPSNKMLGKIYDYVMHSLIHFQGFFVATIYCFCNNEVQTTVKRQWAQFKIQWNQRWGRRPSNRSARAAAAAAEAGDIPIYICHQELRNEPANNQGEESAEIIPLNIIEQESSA


Experiments:
[1] = molecular target: T1, human amylin receptor (calcitonin …); assay: cell-based or functional assay
[2] = molecular target: T2, human calcitonin receptor; assay: cell-based or functional assay

| Binder | EC50 (cAMP production) [1] | Ratio (EC50 hCTR / EC50 hAMYR3) [1] | EC50 (cAMP production) [2] |
| --- | --- | --- | --- |
| K([γGlu-C18 diacid])KCNTATCATQRLANFLVHSS[Dab]NFGPILPPTNVGSNTY-NH2 (disulfide 3-8; N-terminus assumed; SMILES CC[C@H](C)[C@H](NC(=O)[C@@H]1CCCN1C(=O)CNC(=O)[C@H](Cc1ccccc1)NC(=O)[C@H](CC(N)=O)NC(=O)[C@H](CCN)NC(=O)[C@H](CO)NC(=O)[C@H](CO)NC(=O)[C@H](Cc1c[nH]cn1)NC(=O)[C@@H](NC(=O)[C@H](CC(C)C)NC(=O)[C@H](Cc1ccccc1)NC(=O)[C@H](CC(N)=O)NC(=O)[C@H](C)NC(=O)[C@H](CC(C)C)NC(=O)[C@H](CCCNC(=N)N)NC(=O)[C@H](CCC(N)=O)NC(=O)[C@@H](NC(=O)[C@H](C)NC(=O)[C@@H]1CSSC[C@H](NC(=O)[C@H](CCCCN)NC(=O)[C@@H](N)CCCCNC(=O)CC[C@H](NC(=O)CCCCCCCCCCCCCCCCC(=O)O)C(=O)O)C(=O)N[C@@H](CC(N)=O)C(=O)N[C@@H]([C@@H](C)O)C(=O)N[C@@H](C)C(=O)N[C@@H]([C@@H](C)O)C(=O)N1)[C@@H](C)O)C(C)C)C(=O)N[C@@H](CC(C)C)C(=O)N1CCC[C@H]1C(=O)N1CCC[C@H]1C(=O)N[C@H](C(=O)N[C@@H](CC(N)=O)C(=O)N[C@H](C(=O)NCC(=O)N[C@@H](CO)C(=O)N[C@@H](CC(N)=O)C(=O)N[C@H](C(=O)N[C@@H](Cc1ccc(O)cc1)C(N)=O)[C@@H](C)O)C(C)C)[C@@H](C)O) [Peptide 29 (SEQ ID NO: 29)] | 0.243 nM | 34 | 8.21 nM |
| K([γGlu-C18 diacid])KCNTATCATQRLANFL[Aib]HSS[Dab]NFGPILPPTEVGSNTY-NH2 (disulfide 3-8; N-terminus assumed; SMILES CC[C@H](C)[C@H](NC(=O)[C@@H]1CCCN1C(=O)CNC(=O)[C@H](Cc1ccccc1)NC(=O)[C@H](CC(N)=O)NC(=O)[C@H](CCN)NC(=O)[C@H](CO)NC(=O)[C@H](CO)NC(=O)[C@H](Cc1c[nH]cn1)NC(=O)C(C)(C)NC(=O)[C@H](CC(C)C)NC(=O)[C@H](Cc1ccccc1)NC(=O)[C@H](CC(N)=O)NC(=O)[C@H](C)NC(=O)[C@H](CC(C)C)NC(=O)[C@H](CCCNC(=N)N)NC(=O)[C@H](CCC(N)=O)NC(=O)[C@@H](NC(=O)[C@H](C)NC(=O)[C@@H]1CSSC[C@H](NC(=O)[C@H](CCCCN)NC(=O)[C@@H](N)CCCCNC(=O)CC[C@H](NC(=O)CCCCCCCCCCCCCCCCC(=O)O)C(=O)O)C(=O)N[C@@H](CC(N)=O)C(=O)N[C@@H]([C@@H](C)O)C(=O)N[C@@H](C)C(=O)N[C@@H]([C@@H](C)O)C(=O)N1)[C@@H](C)O)C(=O)N[C@@H](CC(C)C)C(=O)N1CCC[C@H]1C(=O)N1CCC[C@H]1C(=O)N[C@H](C(=O)N[C@@H](CCC(=O)O)C(=O)N[C@H](C(=O)NCC(=O)N[C@@H](CO)C(=O)N[C@@H](CC(N)=O)C(=O)N[C@H](C(=O)N[C@@H](Cc1ccc(O)cc1)C(N)=O)[C@@H](C)O)C(C)C)[C@@H](C)O) [Peptide 30 (SEQ ID NO: 30)] | 0.873 nM | 12 | 10.5 nM |
| K([γGlu-C18 diacid])KCNTATCATQRLANFLVHSS[Dab]NFG[Aib]ILPPTNVGSNTY-NH2 (disulfide 3-8; N-terminus assumed; SMILES CC[C@H](C)[C@H](NC(=O)C(C)(C)NC(=O)CNC(=O)[C@H](Cc1ccccc1)NC(=O)[C@H](CC(N)=O)NC(=O)[C@H](CCN)NC(=O)[C@H](CO)NC(=O)[C@H](CO)NC(=O)[C@H](Cc1c[nH]cn1)NC(=O)[C@@H](NC(=O)[C@H](CC(C)C)NC(=O)[C@H](Cc1ccccc1)NC(=O)[C@H](CC(N)=O)NC(=O)[C@H](C)NC(=O)[C@H](CC(C)C)NC(=O)[C@H](CCCNC(=N)N)NC(=O)[C@H](CCC(N)=O)NC(=O)[C@@H](NC(=O)[C@H](C)NC(=O)[C@@H]1CSSC[C@H](NC(=O)[C@H](CCCCN)NC(=O)[C@@H](N)CCCCNC(=O)CC[C@H](NC(=O)CCCCCCCCCCCCCCCCC(=O)O)C(=O)O)C(=O)N[C@@H](CC(N)=O)C(=O)N[C@@H]([C@@H](C)O)C(=O)N[C@@H](C)C(=O)N[C@@H]([C@@H](C)O)C(=O)N1)[C@@H](C)O)C(C)C)C(=O)N[C@@H](CC(C)C)C(=O)N1CCC[C@H]1C(=O)N1CCC[C@H]1C(=O)N[C@H](C(=O)N[C@@H](CC(N)=O)C(=O)N[C@H](C(=O)NCC(=O)N[C@@H](CO)C(=O)N[C@@H](CC(N)=O)C(=O)N[C@H](C(=O)N[C@@H](Cc1ccc(O)cc1)C(N)=O)[C@@H](C)O)C(C)C)[C@@H](C)O) [Peptide 31 (SEQ ID NO: 31)] | 0.349 nM | 4 | 1.28 nM |
| K([γGlu-C18 diacid])KCNTATCATQRLA[Dab]FLVHSSNN[αMeF]GPILPPTEVGSNTY-NH2 (disulfide 3-8; N-terminus assumed; SMILES CC[C@H](C)[C@H](NC(=O)[C@@H]1CCCN1C(=O)CNC(=O)[C@](C)(Cc1ccccc1)NC(=O)[C@H](CC(N)=O)NC(=O)[C@H](CC(N)=O)NC(=O)[C@H](CO)NC(=O)[C@H](CO)NC(=O)[C@H](Cc1c[nH]cn1)NC(=O)[C@@H](NC(=O)[C@H](CC(C)C)NC(=O)[C@H](Cc1ccccc1)NC(=O)[C@H](CCN)NC(=O)[C@H](C)NC(=O)[C@H](CC(C)C)NC(=O)[C@H](CCCNC(=N)N)NC(=O)[C@H](CCC(N)=O)NC(=O)[C@@H](NC(=O)[C@H](C)NC(=O)[C@@H]1CSSC[C@H](NC(=O)[C@H](CCCCN)NC(=O)[C@@H](N)CCCCNC(=O)CC[C@H](NC(=O)CCCCCCCCCCCCCCCCC(=O)O)C(=O)O)C(=O)N[C@@H](CC(N)=O)C(=O)N[C@@H]([C@@H](C)O)C(=O)N[C@@H](C)C(=O)N[C@@H]([C@@H](C)O)C(=O)N1)[C@@H](C)O)C(C)C)C(=O)N[C@@H](CC(C)C)C(=O)N1CCC[C@H]1C(=O)N1CCC[C@H]1C(=O)N[C@H](C(=O)N[C@@H](CCC(=O)O)C(=O)N[C@H](C(=O)NCC(=O)N[C@@H](CO)C(=O)N[C@@H](CC(N)=O)C(=O)N[C@H](C(=O)N[C@@H](Cc1ccc(O)cc1)C(N)=O)[C@@H](C)O)C(C)C)[C@@H](C)O) [Peptide 32 (SEQ ID NO: 32)] | 0.742 nM | 15 | 11.1 nM |
